This is an account of results in patent US20180333469A1 (PORTOLA PHARMACEUTICALS, published 2018).

For test [1], the target named is T1, tissue factor pathway inhibitor (TFPI) (UniProt P10646 29-304, limits assumed).
T1 sequence (looked up): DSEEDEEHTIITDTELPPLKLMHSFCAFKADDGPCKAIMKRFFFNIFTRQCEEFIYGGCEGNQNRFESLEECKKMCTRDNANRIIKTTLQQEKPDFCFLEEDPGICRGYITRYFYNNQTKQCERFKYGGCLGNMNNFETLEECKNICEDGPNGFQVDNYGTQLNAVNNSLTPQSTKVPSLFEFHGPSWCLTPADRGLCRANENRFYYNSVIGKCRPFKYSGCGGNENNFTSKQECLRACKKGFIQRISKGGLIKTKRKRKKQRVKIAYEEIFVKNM
The experiment in a line: cell-based or functional assay.

Test [2] addresses T2, factor V (fV) (UniProt P12259 29-2224). The test can be described thus: SPR, Biacore 3000, CM-5 chip (Prep 1). The procedure: (§1) A few major plasma proteins, including tissue factor pathway inhibitor (TFPI), antithrombin III (ATIII), α-2-macroglobulin, α-1-antitrypsin, factor VII (fVII), factor X (fX), prothrombin, and factor V (fV), were tested for their binding affinity to a wild-type factor Xa (fXa) and two individual preparations (Prep 1 and Prep 2) of the fXa derivative (SEQ ID NO: 3). The binding experiment was conducted with a Biacore® 3000 with the fXa derivative immobilized on a CM-5 sensor chip according to manufacturer's instruction.
In general terms: SPR reads the build-up and loss of mass on a sensor chip optically.

The target of test [3] is T3, α-2-macroglobulin (UniProt P01023 24-1474).
T3 sequence (looked up): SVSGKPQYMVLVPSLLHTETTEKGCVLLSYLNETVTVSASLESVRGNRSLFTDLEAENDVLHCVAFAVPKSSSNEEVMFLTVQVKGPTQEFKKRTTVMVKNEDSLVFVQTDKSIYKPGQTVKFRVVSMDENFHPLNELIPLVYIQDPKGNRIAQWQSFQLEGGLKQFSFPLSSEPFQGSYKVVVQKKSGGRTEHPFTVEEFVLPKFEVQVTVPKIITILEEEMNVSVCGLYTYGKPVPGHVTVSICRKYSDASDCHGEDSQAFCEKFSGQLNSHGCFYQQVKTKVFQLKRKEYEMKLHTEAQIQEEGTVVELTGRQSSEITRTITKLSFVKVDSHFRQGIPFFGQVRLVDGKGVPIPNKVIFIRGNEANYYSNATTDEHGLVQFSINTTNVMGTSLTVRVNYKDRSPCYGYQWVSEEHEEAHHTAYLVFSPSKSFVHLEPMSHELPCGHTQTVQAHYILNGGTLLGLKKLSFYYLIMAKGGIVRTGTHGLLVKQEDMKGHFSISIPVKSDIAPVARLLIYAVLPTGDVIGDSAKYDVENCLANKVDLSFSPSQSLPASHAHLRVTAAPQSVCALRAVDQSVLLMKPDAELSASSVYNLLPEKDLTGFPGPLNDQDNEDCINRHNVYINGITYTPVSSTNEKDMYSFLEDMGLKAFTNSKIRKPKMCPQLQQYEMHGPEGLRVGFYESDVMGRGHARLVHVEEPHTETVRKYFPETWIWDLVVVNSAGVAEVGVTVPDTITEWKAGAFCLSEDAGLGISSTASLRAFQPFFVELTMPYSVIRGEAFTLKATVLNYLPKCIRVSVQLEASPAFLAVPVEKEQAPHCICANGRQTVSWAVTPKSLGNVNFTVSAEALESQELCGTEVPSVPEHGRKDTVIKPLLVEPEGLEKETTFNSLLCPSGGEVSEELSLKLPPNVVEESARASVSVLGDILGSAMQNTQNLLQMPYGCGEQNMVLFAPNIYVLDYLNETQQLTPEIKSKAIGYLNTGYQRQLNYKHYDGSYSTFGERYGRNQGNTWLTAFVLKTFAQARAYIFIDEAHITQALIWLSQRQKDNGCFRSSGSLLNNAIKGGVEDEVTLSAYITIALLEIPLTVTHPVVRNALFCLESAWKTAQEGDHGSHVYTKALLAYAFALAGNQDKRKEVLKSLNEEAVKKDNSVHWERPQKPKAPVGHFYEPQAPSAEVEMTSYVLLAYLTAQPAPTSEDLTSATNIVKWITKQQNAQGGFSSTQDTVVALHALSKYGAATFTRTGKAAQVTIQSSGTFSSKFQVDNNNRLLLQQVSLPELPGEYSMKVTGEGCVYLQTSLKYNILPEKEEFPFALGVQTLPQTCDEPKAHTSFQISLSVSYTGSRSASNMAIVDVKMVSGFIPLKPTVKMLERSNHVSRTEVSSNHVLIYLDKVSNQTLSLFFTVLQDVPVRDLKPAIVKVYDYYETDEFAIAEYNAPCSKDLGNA
The test can be described thus: SPR, Biacore 3000, CM-5 chip (Prep 1). On the procedure:
as §1

Test [4] concerns the target T4, α-1-antitrypsin (UniProt P01009 25-418). The test can be described thus: SPR, Biacore 3000, CM-5 chip (Prep 1). On the procedure: as §1
Test [5] concerns the target T5, factor X (fX) (UniProt P00742 41-488). The experiment in a line: SPR, Biacore 3000, CM-5 chip (Prep 1). On the procedure: as §1
The target in test [6] is T6, prothrombin (UniProt P00734 44-622). The experiment in a line: SPR, Biacore 3000, CM-5 chip (Prep 1). On the procedure:
as §1

Test [7] deals with T7, factor VII (fVII) (UniProt P08709 61-466).
T7 sequence (looked up): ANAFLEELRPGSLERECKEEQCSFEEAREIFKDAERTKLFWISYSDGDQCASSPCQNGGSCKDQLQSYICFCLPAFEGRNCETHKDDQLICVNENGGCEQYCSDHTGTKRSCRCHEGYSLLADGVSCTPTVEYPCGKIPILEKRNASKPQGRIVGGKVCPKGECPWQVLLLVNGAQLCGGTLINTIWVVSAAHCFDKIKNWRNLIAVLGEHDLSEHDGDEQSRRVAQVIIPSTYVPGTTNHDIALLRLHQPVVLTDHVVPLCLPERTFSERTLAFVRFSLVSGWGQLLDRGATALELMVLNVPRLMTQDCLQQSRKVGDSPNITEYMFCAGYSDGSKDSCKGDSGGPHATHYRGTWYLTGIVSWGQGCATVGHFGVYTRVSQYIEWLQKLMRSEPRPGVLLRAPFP
The experiment in a line: SPR, Biacore 3000, fXa derivative immobilized on CM-5 chip. On the procedure:
as §1

In test [8] the target is T1, tissue factor pathway inhibitor (TFPI). The experiment in a line: Kd of fXa derivative-TFPI over Ki of TFPI-fXa, fXa chromogenic assay (FIG. 1C).
The target is the same in test [9]. The experiment in a line: Kd of fXa derivative-TFPI over Ki of TFPI-fXa, fXa chromogenic assay (FIG. 1D). The procedure: The binding kinetics were determined using three different concentrations of the fXa derivative (0, 1 nM, and 5 nM) and escalating doses of TFPI, up to about 12 nM. fXa chromogenic activity was measured following a 2 hour incubation of fXa (1 nM). Residual fXa activity was measured by cleavage of the peptidyl substrate Spectrozyme-fXa (100 μM).

Test [10] shares this target. The experiment in a line: competition in the fXa chromogenic activity assay: SEQ ID NO: 3 competes with fXa (0.5 nM) for TFPI (1.0 nM).
The target is the same in test [11]. The experiment in a line: competition in the fXa chromogenic activity assay: SEQ ID NO: 3 competes with fXa (1.0 nM) for TFPI (1.0 nM).
Test [12] concerns the target T2, factor V (fV). The test can be described thus: SPR, Biacore 3000, CM-5 chip. The procedure:
as §1

The target of another test is antithrombin III (ATIII) (UniProt P01008 33-464). The test can be described thus: SPR, Biacore 3000, CM-5 chip. The procedure: as §1
Sequence of antithrombin III (ATIII) (P01008 33-464 limits assumed): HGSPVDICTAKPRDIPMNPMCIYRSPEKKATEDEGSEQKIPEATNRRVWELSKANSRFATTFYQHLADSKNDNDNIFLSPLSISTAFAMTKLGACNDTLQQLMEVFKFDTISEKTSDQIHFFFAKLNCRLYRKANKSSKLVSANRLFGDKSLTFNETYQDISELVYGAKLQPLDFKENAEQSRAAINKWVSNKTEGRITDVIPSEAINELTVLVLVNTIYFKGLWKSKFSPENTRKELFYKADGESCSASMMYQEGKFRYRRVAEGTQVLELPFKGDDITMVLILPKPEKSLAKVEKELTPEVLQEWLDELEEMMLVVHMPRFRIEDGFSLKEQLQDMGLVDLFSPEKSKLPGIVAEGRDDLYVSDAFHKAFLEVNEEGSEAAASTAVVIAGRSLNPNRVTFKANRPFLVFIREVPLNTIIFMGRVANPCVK
Test [13] has as its target T3, α-2-macroglobulin. The experiment in a line: SPR, Biacore 3000, CM-5 chip. The procedure:
as §1

In test [14] the target is T4, α-1-antitrypsin. The experiment in a line: SPR, Biacore 3000, CM-5 chip. On the procedure:
as §1

For test [15], the target named is T7, factor VII (fVII). The experiment in a line: SPR, Biacore 3000, CM-5 chip. The procedure:
as §1

Test [16] addresses T5, factor X (fX). The test can be described thus: SPR, Biacore 3000, CM-5 chip. The procedure: as §1
Test [17] has as its target T6, prothrombin. The test can be described thus: SPR, Biacore 3000, CM-5 chip. On the procedure:
as §1

T2 sequence (P12259 29-2224 limits assumed): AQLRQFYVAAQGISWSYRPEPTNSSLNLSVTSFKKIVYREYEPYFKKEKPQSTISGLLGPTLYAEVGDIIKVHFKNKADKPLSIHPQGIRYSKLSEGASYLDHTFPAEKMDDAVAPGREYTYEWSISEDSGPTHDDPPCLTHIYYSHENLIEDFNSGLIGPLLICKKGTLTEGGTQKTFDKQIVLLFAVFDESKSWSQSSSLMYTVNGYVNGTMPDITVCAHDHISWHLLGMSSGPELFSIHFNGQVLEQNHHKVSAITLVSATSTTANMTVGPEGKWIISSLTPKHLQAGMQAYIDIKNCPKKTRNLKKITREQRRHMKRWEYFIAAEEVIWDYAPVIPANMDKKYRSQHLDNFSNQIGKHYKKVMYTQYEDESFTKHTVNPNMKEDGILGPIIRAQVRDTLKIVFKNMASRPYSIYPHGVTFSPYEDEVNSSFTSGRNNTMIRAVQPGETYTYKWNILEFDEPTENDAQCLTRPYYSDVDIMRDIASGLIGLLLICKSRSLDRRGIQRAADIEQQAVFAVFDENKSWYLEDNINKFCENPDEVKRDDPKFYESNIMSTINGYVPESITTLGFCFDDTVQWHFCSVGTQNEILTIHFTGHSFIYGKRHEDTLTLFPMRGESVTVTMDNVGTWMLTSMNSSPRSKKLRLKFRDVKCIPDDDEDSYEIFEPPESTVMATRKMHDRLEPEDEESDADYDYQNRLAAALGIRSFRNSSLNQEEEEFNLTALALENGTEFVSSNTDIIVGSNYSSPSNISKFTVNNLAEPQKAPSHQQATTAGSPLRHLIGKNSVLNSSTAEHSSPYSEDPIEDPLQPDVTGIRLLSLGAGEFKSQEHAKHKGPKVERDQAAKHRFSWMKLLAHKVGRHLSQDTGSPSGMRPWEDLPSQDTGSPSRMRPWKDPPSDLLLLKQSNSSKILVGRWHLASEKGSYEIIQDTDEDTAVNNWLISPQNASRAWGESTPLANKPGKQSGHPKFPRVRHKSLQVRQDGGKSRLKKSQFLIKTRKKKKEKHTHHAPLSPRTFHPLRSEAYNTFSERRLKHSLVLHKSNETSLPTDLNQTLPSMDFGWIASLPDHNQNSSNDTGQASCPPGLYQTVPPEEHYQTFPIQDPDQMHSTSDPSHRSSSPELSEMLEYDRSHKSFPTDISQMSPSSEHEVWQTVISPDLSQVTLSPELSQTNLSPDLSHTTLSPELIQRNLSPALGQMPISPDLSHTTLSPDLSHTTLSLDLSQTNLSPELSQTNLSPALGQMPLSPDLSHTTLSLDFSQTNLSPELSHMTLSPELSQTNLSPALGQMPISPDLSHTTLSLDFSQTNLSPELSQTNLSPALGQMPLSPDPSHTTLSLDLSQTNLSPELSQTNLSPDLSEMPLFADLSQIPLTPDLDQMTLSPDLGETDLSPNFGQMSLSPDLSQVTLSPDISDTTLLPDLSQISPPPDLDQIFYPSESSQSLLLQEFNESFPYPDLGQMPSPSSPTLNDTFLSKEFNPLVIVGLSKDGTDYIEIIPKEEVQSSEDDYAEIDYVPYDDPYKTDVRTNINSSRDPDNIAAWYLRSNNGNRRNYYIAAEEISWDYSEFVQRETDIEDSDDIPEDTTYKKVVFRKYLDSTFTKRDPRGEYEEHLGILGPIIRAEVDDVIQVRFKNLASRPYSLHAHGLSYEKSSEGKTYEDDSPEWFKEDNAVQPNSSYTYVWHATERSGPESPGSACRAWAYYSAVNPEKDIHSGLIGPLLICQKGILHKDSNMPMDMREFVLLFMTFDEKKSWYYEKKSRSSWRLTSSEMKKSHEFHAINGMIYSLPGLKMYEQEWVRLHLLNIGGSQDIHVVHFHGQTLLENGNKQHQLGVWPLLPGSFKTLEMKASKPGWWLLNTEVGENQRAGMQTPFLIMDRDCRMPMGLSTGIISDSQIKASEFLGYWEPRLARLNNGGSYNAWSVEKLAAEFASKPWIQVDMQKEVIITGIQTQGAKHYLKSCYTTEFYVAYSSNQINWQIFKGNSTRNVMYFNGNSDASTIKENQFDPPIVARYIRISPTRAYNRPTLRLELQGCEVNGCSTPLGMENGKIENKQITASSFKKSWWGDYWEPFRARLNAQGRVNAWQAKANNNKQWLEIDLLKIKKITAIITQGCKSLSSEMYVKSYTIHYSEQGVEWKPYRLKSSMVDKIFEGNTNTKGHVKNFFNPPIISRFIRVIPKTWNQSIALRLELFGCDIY
T4 sequence (P01009 25-418 limits assumed): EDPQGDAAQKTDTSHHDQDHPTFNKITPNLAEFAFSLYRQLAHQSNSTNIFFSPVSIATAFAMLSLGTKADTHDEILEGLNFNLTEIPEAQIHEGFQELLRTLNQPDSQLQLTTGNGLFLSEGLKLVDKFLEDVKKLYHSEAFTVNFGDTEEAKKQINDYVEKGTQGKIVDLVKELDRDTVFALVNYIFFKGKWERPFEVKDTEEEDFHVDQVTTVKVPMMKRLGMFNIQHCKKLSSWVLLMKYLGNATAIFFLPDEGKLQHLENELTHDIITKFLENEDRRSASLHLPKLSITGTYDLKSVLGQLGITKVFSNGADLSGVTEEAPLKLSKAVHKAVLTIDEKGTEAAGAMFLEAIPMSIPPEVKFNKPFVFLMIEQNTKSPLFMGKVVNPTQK

B1: fXa derivative (SEQ ID NO: 3) (other)
light: ANSFLFWNKYKDGDQCETSPCQNQGKCKDGLGEYTCTCLEGFEGKNCELFTRKLCSLDNGDCDQFCHEEQNSVVCSCARGYTLADNGKACIPTGPYPCGKQTLER
heavy: IVGGQECKDGECPWQALLINEENEGFCGGTILSEFYILTAAHCLYQAKRFKVRVGDRNTEQEEGGEAVHEVEVVIKHNRFTKETYDFDIAVLRLKTPITFRMNVAPACLPERDWAESTLMTQKTGIVSGFGRTHEKGRQSTRLKMLEVPYVDRNSCKLSSSFIITQNMFCAGYDTKQEDACQGDAGGPHVTRFKDTYFVTGIVSWGEGCARKGKYGIYTKVTAFLKWIDRSMKTRGLPKAKSHAPEVITSSPLK
notes: Prep 1 and Prep 2 are two preparations of the same molecule; also called fXa derivative Prep 1; fXa derivative Prep 2
On to B1, for which the “EC50 (read off the curve): fXa formed after 15 min by fVIIa/TF with 2.4 nM TFPI” value in [1] is approximately 5 nM. Besides, the binding result in the test with factor V (fV) [2], with α-2-macroglobulin [3], with α-1-antitrypsin [4], in the test with factor X (fX) [5] and with prothrombin [6] was “no binding” in each case. Moreover, in the test with factor VII (fVII) [7], binding was characterised by a dissociation constant (Kd) of 2780 nM. Moreover, the figures for the “Ratio (Kd/Ki)” value in test [8] and in test [9] were 2.69 and 4.97, respectively. For the same molecule, the “EC50 (read off the curve)” value in test [10] and in test [11] was approximately 2 nM throughout.

B2: wild-type factor Xa (fXa) (enzyme)
light: ANSFLEEMKKGHLERECMEETCSYEEAREVFEDSDKTNEFWNKYKDGDQCETSPCQNQGKCKDGLGEYTCTCLEGFEGKNCELFTRKLCSLDNGDCDQFCHEEQNSVVCSCARGYTLADNGKACIPTGPYPCGKQTLER
heavy: IVGGQECKDGECPWQALLINEENEGFCGGTILSEFYILTAAHCLYQAKRFKVRVGDRNTEQEEGGEAVHEVEVVIKHNRFTKETYDFDIAVLRLKTPITFRMNVAPACLPERDWAESTLMTQKTGIVSGFGRTHEKGRQSTRLKMLEVPYVDRNSCKLSSSFIITQNMFCAGYDTKQEDACQGDSGGPHVTRFKDTYFVTGIVSWGEGCARKGKYGIYTKVTAFLKWIDRSMKTRGLPKAKSHAPEVITSSPLK
modifications: 11 gamma-carboxyglutamic acid residues (Gla) in the Gla domain, residues 1-45 of SEQ ID NO. 1
As for B2, the binding result with factor V (fV) [12], with α-2-macroglobulin [13], with α-1-antitrypsin [14], in the test with factor X (fX) [16] and with prothrombin [17] was “no binding” throughout. In addition, the values for the Kd with antithrombin III (ATIII) and in the test with factor VII (fVII) [15] were 1060 to 13200 nM and 2970 nM, respectively.
